Legend:
[1] = target: C3d^A4H-C3d^W41A heterodimer (human)
[2] = target: human C3d^17A (monomeric) (human); assay: near-UV circular dichroism thermal melt; 87.5 µM C3d^17C or C3d^17A alone or with an equimolar concentration of the Sbi construct, 10 mM sodium phosphate pH 7.4, 250-320 nm, 5°C to 85°C; Tm from Boltzmann sigmoidal fits at 280 and 296 nm

| Substance | increase in tryptophan fluorescence intensity of the C3d^A4H/C3d^W41A solution (100 µM, equimolar Sbi construct, excitation 295 nm), read as N-terminal helix swap [1] [%] | change in tryptophan fluorescence intensity of the C3d^A4H/C3d^W41A solution (100 µM, equimolar Sbi construct, excitation 295 nm), read as N-terminal helix swap [1] [%] | increase in melting temperature (Tm) of C3d^17A [2] [°C] |
| --- | --- | --- | --- |
| Sbi domain IV (wild-type Sbi-IV) (from UniProt Q2FVK5 198-266) (domain or fragment) | 27 |  |  |
| Sbi domains III and IV (wild-type Sbi-III-IV) (from UniProt Q2FVK5 150-266) (domain or fragment) | 17 |  |  |
| truncated Sbi-IV mutant Sbi-IV^V198-D208del (from UniProt Q2FVK5 198-266) (domain or fragment) |  | 2.5 | 6.5 |

Source: article PMC9174452
